B1: peptide HD2 (from tick evasin EVA4) / CXCL11 (biotinylated, synthetic) (parent complex)
chain 1: EEDDYTAYAPLTCYFT
chain 2: FPMFKRGRCLCIGPGVKAVKVADIEKASIMYPSNNCDKIEVIITLKENKGQRCLNPKSKQARLIIKKVERKNF

Variants of: B1

Row | Variant | enrichment
1 | chain 1 C13M | -6.65 log2 (difference from the parental peptide)
2 | chain 1 C13F | -5.76 log2 (difference from the parental peptide)
3 | chain 1 C13A | -5.18 log2 (difference from the parental peptide)
4 | chain 1 C13Q | -4.93 log2 (difference from the parental peptide)
5 | chain 1 C13V | -1.39 log2 (difference from the parental peptide)
6 | chain 1 C13E | -5.07 log2 (difference from the parental peptide)
7 | chain 1 L11C | -2.08 log2 (difference from the parental peptide)
8 | chain 1 L11M | 2.73 log2 (difference from the parental peptide)
9 | chain 1 L11T | -1.48 log2 (difference from the parental peptide)
10 | chain 1 L11W | 4.79 log2 (difference from the parental peptide)
11 | chain 1 L11H | 0.15 log2 (difference from the parental peptide)
12 | chain 1 L11D | -5.22 log2 (difference from the parental peptide)
13 | chain 1 L11P | -5.24 log2 (difference from the parental peptide)
14 | chain 1 L11R | -3.19 log2 (difference from the parental peptide)
15 | chain 1 L11A | -1.47 log2 (difference from the parental peptide)
16 | chain 1 L11S | -0.706 log2 (difference from the parental peptide)
17 | chain 1 D3W | 0.263 log2 (difference from the parental peptide)
18 | chain 1 D3T | -3.75 log2 (difference from the parental peptide)
19 | chain 1 D3N | -0.358 log2 (difference from the parental peptide)
20 | chain 1 D3S | -4.11 log2 (difference from the parental peptide)
21 | chain 1 D3F | -3.31 log2 (difference from the parental peptide)
22 | chain 1 D3Y | -1.43 log2 (difference from the parental peptide)
23 | chain 1 Y5W | 5.39 log2 (difference from the parental peptide)
24 | chain 1 Y5F | -0.5 log2 (difference from the parental peptide)
25 | chain 1 Y5I | -1.31 log2 (difference from the parental peptide)

Row | Variant | enrichment
26 | chain 1 Y5N | -4.84 log2 (difference from the parental peptide)
27 | chain 1 F15H | -2.86 log2 (difference from the parental peptide)
28 | chain 1 F15Y | 0.592 log2 (difference from the parental peptide)
29 | chain 1 F15V | -0.608 log2 (difference from the parental peptide)
30 | chain 1 F15E | -6.06 log2 (difference from the parental peptide)
31 | chain 1 F15T | -0.0704 log2 (difference from the parental peptide)
32 | chain 1 F15L | -2.87 log2 (difference from the parental peptide)
33 | chain 1 F15Q | -2.96 log2 (difference from the parental peptide)
34 | chain 1 F15G | -4.79 log2 (difference from the parental peptide)
35 | chain 1 F15S | -1.86 log2 (difference from the parental peptide)
36 | chain 1 F15R | -4.18 log2 (difference from the parental peptide)
37 | chain 1 F15M | -0.451 log2 (difference from the parental peptide)
38 | chain 1 F15C | 0.343 log2 (difference from the parental peptide)
39 | chain 1 F15A | -3.02 log2 (difference from the parental peptide)
40 | chain 1 P10N | 1.47 log2 (difference from the parental peptide)
41 | chain 1 P10D | 8.22 log2 (difference from the parental peptide)
42 | chain 1 P10H | -5.09 log2 (difference from the parental peptide)
43 | chain 1 P10I | -0.366 log2 (difference from the parental peptide)
44 | chain 1 P10V | -5.93 log2 (difference from the parental peptide)
45 | chain 1 P10S | -1.81 log2 (difference from the parental peptide)
46 | chain 1 P10M | -4.64 log2 (difference from the parental peptide)
47 | chain 1 P10E | -3.45 log2 (difference from the parental peptide)
48 | chain 1 P10L | -1.17 log2 (difference from the parental peptide)
49 | chain 1 P10W | 0.743 log2 (difference from the parental peptide)
50 | chain 1 T6G | 4.62 log2 (difference from the parental peptide)

Row | Variant | enrichment
51 | chain 1 T6M | 1.9 log2 (difference from the parental peptide)
52 | chain 1 T6C | -5.45 log2 (difference from the parental peptide)
53 | chain 1 T6N | 1.03 log2 (difference from the parental peptide)
54 | chain 1 T6D | 3.67 log2 (difference from the parental peptide)
55 | chain 1 T6Y | 3.68 log2 (difference from the parental peptide)
56 | chain 1 T6Q | -2.01 log2 (difference from the parental peptide)
57 | chain 1 T6F | 4.5 log2 (difference from the parental peptide)
58 | chain 1 T6H | -0.342 log2 (difference from the parental peptide)
59 | chain 1 T6S | 1.57 log2 (difference from the parental peptide)
60 | chain 1 T6R | 0.535 log2 (difference from the parental peptide)
61 | chain 1 T6K | 0.156 log2 (difference from the parental peptide)
62 | chain 1 T6W | 9.7 log2 (difference from the parental peptide)
63 | chain 1 T6P | 1.34 log2 (difference from the parental peptide)
64 | chain 1 T6I | -0.429 log2 (difference from the parental peptide)
65 | chain 1 T6A | 1.82 log2 (difference from the parental peptide)
66 | chain 1 Y8D | -3.68 log2 (difference from the parental peptide)
67 | chain 1 Y8V | -0.599 log2 (difference from the parental peptide)
68 | chain 1 Y8N | 0.757 log2 (difference from the parental peptide)
69 | chain 1 Y8H | -4.71 log2 (difference from the parental peptide)
70 | chain 1 Y8M | -5.63 log2 (difference from the parental peptide)
71 | chain 1 Y8F | 0.146 log2 (difference from the parental peptide)
72 | chain 1 Y8I | -0.997 log2 (difference from the parental peptide)
73 | chain 1 Y8S | -2.63 log2 (difference from the parental peptide)
74 | chain 1 A7F | 1.43 log2 (difference from the parental peptide)
75 | chain 1 A7K | -3.04 log2 (difference from the parental peptide)

Row | Variant | enrichment
76 | chain 1 A7E | -0.399 log2 (difference from the parental peptide)
77 | chain 1 A7Q | 3.76 log2 (difference from the parental peptide)
78 | chain 1 A7G | -3.03 log2 (difference from the parental peptide)
79 | chain 1 A7L | 0.413 log2 (difference from the parental peptide)
80 | chain 1 A7R | -1.89 log2 (difference from the parental peptide)
81 | chain 1 A7D | 2.88 log2 (difference from the parental peptide)
82 | chain 1 A7M | 1.69 log2 (difference from the parental peptide)
83 | chain 1 A7T | -0.798 log2 (difference from the parental peptide)
84 | chain 1 A7V | 0.52 log2 (difference from the parental peptide)
85 | chain 1 A7H | -1.06 log2 (difference from the parental peptide)
86 | chain 1 A7S | 0.213 log2 (difference from the parental peptide)
87 | chain 1 A7N | 1.13 log2 (difference from the parental peptide)
88 | chain 1 A7P | 0.432 log2 (difference from the parental peptide)
89 | chain 1 E2K | -2.28 log2 (difference from the parental peptide)
90 | chain 1 E2M | 0.915 log2 (difference from the parental peptide)
91 | chain 1 E2T | -4.37 log2 (difference from the parental peptide)
92 | chain 1 E2S | -2.62 log2 (difference from the parental peptide)
93 | chain 1 E2H | -4.78 log2 (difference from the parental peptide)
94 | chain 1 D4P | 0.748 log2 (difference from the parental peptide)
95 | chain 1 D4L | -4.01 log2 (difference from the parental peptide)
96 | chain 1 D4M | -5.76 log2 (difference from the parental peptide)
97 | chain 1 D4I | -4.93 log2 (difference from the parental peptide)
98 | chain 1 D4V | -6.99 log2 (difference from the parental peptide)
99 | chain 1 D4W | -2.72 log2 (difference from the parental peptide)
100 | chain 1 D4F | -5.51 log2 (difference from the parental peptide)

Row | Variant | enrichment
101 | chain 1 D4S | -5.73 log2 (difference from the parental peptide)
102 | chain 1 A9T | 1.25 log2 (difference from the parental peptide)
103 | chain 1 A9N | -2.99 log2 (difference from the parental peptide)
104 | chain 1 A9I | -4.81 log2 (difference from the parental peptide)
105 | chain 1 A9M | -0.281 log2 (difference from the parental peptide)
106 | chain 1 A9E | 2.26 log2 (difference from the parental peptide)
107 | chain 1 A9L | -2.33 log2 (difference from the parental peptide)
108 | chain 1 A9W | 5.42 log2 (difference from the parental peptide)
109 | chain 1 A9V | -2.18 log2 (difference from the parental peptide)
110 | chain 1 A9R | -1.01 log2 (difference from the parental peptide)
111 | chain 1 A9H | -5.35 log2 (difference from the parental peptide)
112 | chain 1 A9Q | 0.165 log2 (difference from the parental peptide)
113 | chain 1 T12H | -2.7 log2 (difference from the parental peptide)
114 | chain 1 T12A | -4.34 log2 (difference from the parental peptide)
115 | chain 1 T12V | 1.82 log2 (difference from the parental peptide)
116 | chain 1 T12Y | 1.35 log2 (difference from the parental peptide)
117 | chain 1 T12F | -2.38 log2 (difference from the parental peptide)
118 | chain 1 T12W | 0.223 log2 (difference from the parental peptide)
119 | chain 1 T12Q | -3.76 log2 (difference from the parental peptide)
120 | chain 1 T12E | -0.922 log2 (difference from the parental peptide)
121 | chain 1 T12M | 0.317 log2 (difference from the parental peptide)
122 | chain 1 T12R | -6.22 log2 (difference from the parental peptide)
123 | chain 1 T12D | -5.79 log2 (difference from the parental peptide)
124 | chain 1 T12I | 0.0621 log2 (difference from the parental peptide)
125 | chain 1 T12S | -1.85 log2 (difference from the parental peptide)

Row | Variant | enrichment
126 | chain 1 Y14C | -3.13 log2 (difference from the parental peptide)
127 | chain 1 Y14V | -5.26 log2 (difference from the parental peptide)
128 | chain 1 Y14F | 0.796 log2 (difference from the parental peptide)
129 | chain 1 Y14T | -5.08 log2 (difference from the parental peptide)
130 | chain 1 Y14H | -2.54 log2 (difference from the parental peptide)
131 | chain 1 Y14G | -6.05 log2 (difference from the parental peptide)
132 | chain 1 T16C | 2.71 log2 (difference from the parental peptide)
133 | chain 1 T16E | 1.12 log2 (difference from the parental peptide)
134 | chain 1 T16S | 0.254 log2 (difference from the parental peptide)
135 | chain 1 T16M | -0.985 log2 (difference from the parental peptide)
136 | chain 1 T16P | 0.438 log2 (difference from the parental peptide)
137 | chain 1 T16F | -2.01 log2 (difference from the parental peptide)
138 | chain 1 T16I | 0.577 log2 (difference from the parental peptide)
139 | chain 1 T16V | -2.73 log2 (difference from the parental peptide)
140 | chain 1 T16Q | -2.38 log2 (difference from the parental peptide)
141 | chain 1 T16L | 0.663 log2 (difference from the parental peptide)
142 | chain 1 T16Y | -3.28 log2 (difference from the parental peptide)
143 | chain 1 E1N | -4.13 log2 (difference from the parental peptide)
144 | chain 1 E1P | -4.68 log2 (difference from the parental peptide)
145 | chain 1 E1I | 0.804 log2 (difference from the parental peptide)
146 | chain 1 E1A | 0.823 log2 (difference from the parental peptide)
147 | chain 1 E1D | 1.33 log2 (difference from the parental peptide)
148 | chain 1 E1Y | 1.69 log2 (difference from the parental peptide)
149 | chain 1 E1V | -6.09 log2 (difference from the parental peptide)
150 | chain 1 E1L | -0.107 log2 (difference from the parental peptide)

From paper PMC11969024 (2025)
